Paper PMC11108873, “Emergence of a clinical Salmonella enterica serovar 1,4,[5], 12: i:-isolate, ST3606, in China with susceptibility decrease to ceftazidime-avibactam carrying a novel blaCTX-M-261 variant and a blaNDM-5” (European Journal of Clinical Microbiology & Infectious …, 2024)

Key:
Assay in all cases: purified protein
Conditions in all cases: 50 mM sodium phosphate pH 7.0, 30 °C, BSA added to enzyme dilution
[1] = test system: CC(C)(O/N=C(\C(=O)N[C@@H]1C(=O)N2C(C(=O)[O-])=C(C[n+]3ccccc3)CS[C@H]12)c1csc(N)n1)C(=O)O
[2] = test system: CO/N=C(\C(=O)N[C@@H]1C(=O)N2C(C(=O)O)=C(COC(C)=O)CS[C@H]12)c1csc(N)n1
[3] = test system: CO/N=C(\C(=O)N[C@@H]1C(=O)N2C(C(=O)O)=C(CSc3nc(=O)c(=O)[nH]n3C)CS[C@H]12)c1csc(N)n1
[4] = test system: CO/N=C(\C(=O)N[C@@H]1C(=O)N2C(C(=O)[O-])=C(C[N+]3(C)CCCC3)CS[C@H]12)c1csc(N)n1

## CTX-M-1 (Escherichia coli)
[1]
  Km: 328.8 ± 42 µM
  kcat: 43.6 ± 3.7 s⁻¹
  kcat/Km: 130000 M⁻¹ s⁻¹
[2]
  Km: 17.8 ± 2.5 µM
  kcat: 111 ± 25 s⁻¹
  kcat/Km: 6.2e+06 M⁻¹ s⁻¹
[3]
  Km: 10.5 ± 1.8 µM
  kcat: 105 ± 4.3 s⁻¹
  kcat/Km: 9.98e+06 M⁻¹ s⁻¹
[4]
  Km: 146 ± 21.3 µM
  kcat: 27.9 ± 8.6 s⁻¹
  kcat/Km: 190000 M⁻¹ s⁻¹
